From patent US20060281899A1, “Mutants of biotin binding protein” (priority 2002, published 2006)
Substitutions are numbered along the chain they refer to. In names and notes the source's numbering stands. Several values for one entry are separate records, joined by “and”; a condition that tells them apart may be missing. Equal values may be shown once.

B1: AVR3: Recombinant chicken avidin-related protein 3, produced in Sf9 insect cells (protein, UniProt P56733 25-150, looked up)
Avidin-related protein 3: ARKCSLTGKWTNNLGSIMTIRAVNSRGEFAGTYLTAVADNPGNIKLSPLLGIQHKRACQPTFGFTVHWNFSESTSVFVGQCFIDRSGKEVLKTKWLQRLAVDDISDDWKATRVGYNNFTRQRTVEE
B2: AVR1: Recombinant chicken avidin-related protein 1, produced in Sf9 insect cells (protein, UniProt O13153 25-150, looked up)
Avidin-related protein 1: ARKCSLTGKWDNDLGSIMTIGAVNDNGEFNGTYITAVADNPGNITRSPLLGIQHKRACQPTFGFTVHWNFSESTSVFVGQCFVDKSGKEVLKTKWLQRLAVDDISDDWKATRVGNNDFTRQRTVEE
B3: AVR6: Recombinant chicken avidin-related protein 6, produced in Sf9 insect cells (protein, UniProt P56735 25-150, looked up)
Avidin-related protein 6: B2 Avidin-related protein 1 with K9E, D13N, T45K, R46L, K85R, N115Y, D117N
B4: AVR7: Recombinant chicken avidin-related protein 7, produced in Sf9 insect cells (protein, UniProt P56736 25-150, looked up)
Avidin-related protein 7: B1 Avidin-related protein 3 with K9E, T11D, I17N, R21G, S25D, R26N, A30N, L34I
B5: AVR2: Recombinant chicken avidin-related protein 2, produced in Sf9 insect cells (protein, UniProt P56732 25-150, looked up)
Avidin-related protein 2: B2 Avidin-related protein 1 with K9E, N30D, R46L, C58S, K85R, K109I, R122H
B6: AVR4/5(N43E): AVR4/5 mutant, residue 43 changed to glutamate to avoid glycosylation (protein, UniProt P56734 25-150, looked up, variant N43E)
Avidin-related protein 4/5: ARKCSLTGKWTNNLGSIMTIRAVNSRGEFTGTYLTAVADNPGEITLSPLLGIQHKRASQPTFGFTVHWNFSESTTVFTGQCFIDRNGKEVLKTMWLLRSSVNDISYDWKATRVGYNNFTRLCTVEE
B7: AVR4/5 + 2-mercaptoethanol: AVR4/5 analyzed in the presence of 2-mercaptoethanol (0.4% v/v) (protein, UniProt P56734 25-150, looked up)
Avidin-related protein 4/5: B6 Avidin-related protein 4/5 with E43N
modifications: with 2-mercaptoethanol

Tests used:
Isoelectric focusing = format: physicochemical
Method: (§1) The heat stability of the AVRs was studied by using an SDS-PAGE-based method (Bayer, E. A., Ehrlich-Rogozinski, S. and Wilchek, M. (1996) Electrophoresis 17, 1319-1324). In this method, each protein sample was divided into two fractions one of which was kept biotin-free and the other was supplemented with an excess of biotin. The samples were then mixed with denaturing SDS-PAGE sample buffer (containing β-mercaptoethanol) and incubated at a given temperature for 20 minutes. After heat treatment, the samples were subjected to SDS-PAGE and visualised by staining with Coomassie brilliant blue. The relative proportions of tetrameric and monomeric forms of the AVR proteins (with avidin as the control) were detected. A similar assay, with β-mercaptoethanol omitted from the sample buffer, was performed to examine the presence of intersubunit disulfide-bridges. Sensitivity to proteinase K was studied both in the absence and in the presence of biotin as described (Laitinen, O. H., Airenne, K. J., Marttila, A. T., Kulik, T., Porkka, E., Bayer, E. A., Wilchek, M. and Kulomaa, M. S. (1999) FEBS Lett. 461, 52-8). The isoelectric point of each AVR was determined by isoelectric focusing as previously reported (Marttila, A. T., Airenne, K. J., Laitinen, O. H., Kulik, T., Bayer, E. A., Wilchek, M. and Kulomaa, M. S. (1998) FEBS Lett. 441, 313-317). The glycosylation patterns of the AVR proteins were studied by treating the proteins with Endo Hf and PNGase F glycosidase according to the manufacturer's instructions (New England Biolabs, Mass., USA).

[1] = IASyS reversibility of biotin binding of avidin and AVRs; conditions: biotin cuvette, after addition of free biotin (0.17 mg/ml)
Method: The reversibility of biotin binding was studied as follows: Avidin and the AVRs were allowed to bind to a biotin-coated cuvette. After measuring the initial binding (A) as described above, biotin-saturated (0.17 mg/ml) buffer was injected into the cuvette and the amount of proteins remaining bound was measured until no dissociation was seen, again as compared to the negative control cuvette (B). The measurement time was at least 20 minutes. The percent reversibility was calculated as follows: reversibility (%)=100*(A−B)/A. A−B is the amount of liberated proteins after biotin adding.

[2] = IASyS optical biosensor, AVR binding in a biotin cuvette; conditions: for Kd: biotin cuvette, 20.0° C.; for kass / kdiss: biotin cuvette (as for Kd of these proteins)
Method: The biotin-binding characteristics of the AVR proteins were studied as previously described using the IASyS optical biosensor (Marttila, A. T., Airenne, K. J., Laitinen, O. H., Kulik, T., Bayer, E. A ., Wilchek, M. and Kulomaa, M. S. (1998) FEBS Lett. 441, 313-317; Laitinen, O. H., Airenne, K. J., Marttila, A. T., Kulik, T., Porkka, E., Bayer, E. A., Wilchek, M. and Kulomaa, M. S. (1999) FEBS Lett. 461, 52-8). Affinities were measured for 2-iminobiotin or biotin at 20.0° C. using a stirring power of 100%. Briefly, the protein under study in biotin-free buffer was allowed to bind to the biotin-coated surface of the IASyS cuvette. As a negative control, the protein under study was saturated with excess biotin prior to (and was also maintained under biotin excess upon) addition to the cuvette. Under these conditions, residual binding to the biotin surface of the cuvette could be regarded as unspecific, and was used as a measure of baseline variation. Binding equilibrium in the experimental cuvette was considered to be attained after no binding was detected as compared to negative control.
The actual dissociation constants (Kd) were calculated for the AVRs according to the kass and kdiss rates measured in a separate assay in different protein concentrations (varying between 10 μM and 100 pM) (Table 4 and FIG. 6). The binding seemed to follow two-order or even more complex kinetics. However, the first 1000 seconds of the binding fitted considerably well to the bi-phasic curve. All measured dissociation rate constants (kdiss) followed the first-order kinetics. Because of the extremely high binding, affinities of the AVRs for biotin could not be determined except for AVR1, AVR2 and AVR7. Binding to 2-iminobiotin was determined only for AVR4/5, and it was similar to that of avidin. The lack of binding for the other AVRs was surprising, since most of them were purified using 2-iminobiotin agarose.

[3] = Non-reducing SDS-PAGE thermostability, oligomeric forms after boiling; format: physicochemical; conditions: boiled 20 minutes
Method: as §1

[4] = IAsys optical biosensor, AVR4/5 forms binding to 2-iminobiotin surface; conditions: for Kd: 20° C.
Method: The biotin-binding characteristics of the different avidins were studied using an IAsys optical biosensor at 20° C. The reversibility of binding and binding affinities to the 2-iminobiotin surface in 50 mM borate buffer (pH 9.5, 1 M NaCl) were measured as previously reported (Laitinen, O. H., Hytönen, V. P., Ahlroth, M. K., Pentikäinen, O. T., Gallagher, C., Nordlund, H. R., Ovod, V., Marttila, A. T., Porkka, E., Heino, S., Johnson, M. S., Airenne, K. J. & Kulomaa, M. S. (2002) Biochem. J. 363, 609-617).
Briefly, The 2-iminobiotin ligand was immobilized onto the carboxymethyldextran surface of a cuvette using N-hydroxysuccinimide activation. Binding of various concentrations of avidin or avidin mutants onto 2-iminobiotinylated surface were measured in a 50 mM borate buffer (pH 9.5) containing 1 M NaCl at 20° C. The iminobiotin cuvettes were regenerated with 20 mM HCl. The kinetic rate constants for association (kass) and dissociation (kdiss) were calculated using the Fast Fit program package (Affinity Sensors). The obtained rate constants were used to calculate Kd(rel) according to Kd=kdiss/kass. Equilibrium data obtained from measurements with different protein concentrations were used to calculate the dissociation constant Kd(eq).

[5] = IAsys reversibility of binding to biotin, AVR4/5 forms; conditions: biotin cuvette
Method: The biotin-binding characteristics of the different avidins were studied using an IAsys optical biosensor at 20° C. […] H., Hytönen, V. P., Ahlroth, M. K., Pentikäinen, O. T., Gallagher, C., Nordlund, H. R., Ovod, V., Marttila, A. T., Porkka, E., Heino, S., Johnson, M. S., Airenne, K. J. & Kulomaa, M. S. (2002) Biochem. J. 363, 609-617).

[6] = Differential scanning calorimetry of avidin and AVR4/5 forms; format: physicochemical; conditions: for DSC Tm(−biotin): 50 mM sodium phosphate pH 7.0, 100 mM NaCl
Method: The thermodynamics of the heat-induced unfolding of the proteins were studied using DSC. The transition midpoint of heat-induced denaturation (Tm) of the avidin and different AVR4/5 forms was studied using a Nano II differential scanning calorimeter (Calorimetric Sciences Corporation, Provo, Utah, USA). The reference cell was filled with buffer whereas the sample cell was filled with proteins dissolved in 50 mM sodium phosphate buffer, pH 7.0 containing 100 mM NaCl. Avidin and AVR4/5(C124S) were also analyzed in 50 mM Na-acetate pH 4.0 containing 100 mM NaCl. Furthermore, AVR4/5 was analyzed in the presence of 2-mercaptoethanol (0.4% v/v). The samples (1.6-9.6 μM) were analyzed both in the absence and presence of a three fold molar excess of biotin/subunit. All samples were degassed before being loaded into the DSC. The thermograms were recorded as a function of temperature; between 25 and 130° C. at a rate of 55.6° C./h (Gonzalez, M., Argarana, C. E. & Fidelio, G. D. (1999) Biomol. Eng. 16, 67-72; Nordlund, H. R., Laitinen, O. H., Uotila, S. T., Nyholm, T., Hytönen, V. P., Slotte, J. P. & Kulomaa, M. S. (2003) J. Biol. Chem. 278, 2479-2483). Data was analyzed using Microcal Origin 6.0 and Cpcalc 2.1 (Applied Thermodynamics, Hunt Valley, Md.). The change in heat capacity upon unfolding (ΔCp) was measured for avidin and AVR4/5(C124S) using DSC data from measurements in pH 4.0 and 7.0. ΔCp was then obtained from the slope of ΔH vs. Tm (Liu, Y. & Sturtevant, J. M. (1996) Biochemistry 35, 3059-3062).

[7] = read-out: Kd calculated from the equilibrium response data
[8] = read-out: Kd calculated directly from the binding curves

| Molecule | pI by isoelectric focusing (Isoelectric focusing) | Reversibility of biotin binding [1] | Kd [2, 7] | Dimeric form, relative proportion [3] | Monomeric form, relative proportion [3] | kass [2] | further results |
| --- | --- | --- | --- | --- | --- | --- | --- |
| B1 | ≈ 10 | 3 ± 2% | < 10 nM | 50 percentage | 50 percentage | – | – |
| B2 | ≈ 7 | 18% and 18 ± 10% | 100 nM | 40 percentage | 40 percentage | (5.5 ± 1.5) × 10^4 M^−1 s^−1 | kdiss [2]: (2.4 ± 0.8) × 10^−3 s^−1; Kd [2, 8]: 44 nM; Tetrameric form, relative proportion [3]: 20 percentage |
| B3 | ≈ 7 | 5 ± 3% | < 10 nM | 50 percentage | 50 percentage | – | – |
| B4 | ≈ 7 | 3 ± 3% | 4.5 nM | 20 percentage | 80 percentage | (1.8 ± 0.2) × 10^5 M^−1 s^−1 | – |
| B5 | ≈ 5 | 94 ± 3% | 1700 nM | – | 100 percentage | (1.8 ± 0.1) × 10^4 M^−1 s^−1 | kdiss [2]: (4.6 ± 1.1) × 10^−3 s^−1; Kd [2, 8]: 52 nM |
| B6 | – | – | – | – | – | – | kass [4]: (1.3 ± 0.3) × 10^4 M^−1s^−1; kdiss [4]: (1.8 ± 0.8) × 10^−3 s^−1; Kd ([4]; 50 mM borate pH 9.5, 1 M NaCl, read-out: Kd detected from the equilibrium response data): 110 nM; Kd ([4]; pH 9.5, 1 M NaCl, read-out: Kd detected directly from the binding curves): 140 nM; Reversibility of binding to biotin [5]: 3 ± 2%; DSC Tm(−biotin) [6]: 104.9 ± 0.3 °C |
| B7 | – | – | – | – | – | – | DSC Tm(−biotin) [6]: 106.5 ± 0.3 °C; ΔTm ([6]; change in Tm upon addition of a three-fold molar excess of biotin): 18.7 °C; ΔH of unfolding ([6]; sample without biotin): 169 ± 6.21 kcal/mol; DSC Tm (+biotin) ([6]; three-fold molar excess of biotin, pH 7.0): 125.2 ± 0.1 °C |
